{"source": "patent US20180142032A1", "about": "(Sanofi, published 2018)", "key": {"[1]": {"target": "T1, LAMP1_mL1_hL234_ΔGYQTI (mouse; human)", "T1 construct": "on cells; also called pXL5668", "T1 chain": "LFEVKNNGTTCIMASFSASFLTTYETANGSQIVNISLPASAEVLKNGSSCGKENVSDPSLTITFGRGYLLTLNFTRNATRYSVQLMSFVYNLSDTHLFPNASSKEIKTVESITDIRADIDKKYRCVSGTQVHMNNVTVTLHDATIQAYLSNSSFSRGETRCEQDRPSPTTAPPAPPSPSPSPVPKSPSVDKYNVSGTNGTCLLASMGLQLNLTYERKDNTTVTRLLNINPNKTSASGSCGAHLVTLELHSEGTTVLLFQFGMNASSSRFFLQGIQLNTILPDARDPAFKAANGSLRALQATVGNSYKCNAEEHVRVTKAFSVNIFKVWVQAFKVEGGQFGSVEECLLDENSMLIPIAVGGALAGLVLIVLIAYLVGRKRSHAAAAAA", "test": "flow cytometry, transfected 293-F cells"}, "[2]": {"target": "T2, LAMP1_mL1_hL2_mL34_ΔGYQTI (mouse; human, UniProt P11438 25-369)", "T2 construct": "on cells; also called pXL5988; not shown: transmembrane domain and cytoplasmic tail with GYQTI replaced by 5 Ala", "T2 chain": "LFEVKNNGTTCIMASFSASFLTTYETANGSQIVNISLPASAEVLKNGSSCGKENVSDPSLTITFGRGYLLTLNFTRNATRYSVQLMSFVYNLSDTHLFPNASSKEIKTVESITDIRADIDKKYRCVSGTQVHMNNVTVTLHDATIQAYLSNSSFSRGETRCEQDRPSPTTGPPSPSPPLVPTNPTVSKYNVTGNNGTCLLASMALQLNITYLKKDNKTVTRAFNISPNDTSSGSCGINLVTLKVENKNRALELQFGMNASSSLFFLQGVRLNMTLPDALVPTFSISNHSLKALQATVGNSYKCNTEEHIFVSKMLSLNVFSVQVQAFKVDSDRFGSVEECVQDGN", "test": "flow cytometry, transfected 293-F cells"}, "[3]": {"target": "T3, human LAMP1 at the cell surface (human, UniProt P11279 29-417)", "T3 sequence": "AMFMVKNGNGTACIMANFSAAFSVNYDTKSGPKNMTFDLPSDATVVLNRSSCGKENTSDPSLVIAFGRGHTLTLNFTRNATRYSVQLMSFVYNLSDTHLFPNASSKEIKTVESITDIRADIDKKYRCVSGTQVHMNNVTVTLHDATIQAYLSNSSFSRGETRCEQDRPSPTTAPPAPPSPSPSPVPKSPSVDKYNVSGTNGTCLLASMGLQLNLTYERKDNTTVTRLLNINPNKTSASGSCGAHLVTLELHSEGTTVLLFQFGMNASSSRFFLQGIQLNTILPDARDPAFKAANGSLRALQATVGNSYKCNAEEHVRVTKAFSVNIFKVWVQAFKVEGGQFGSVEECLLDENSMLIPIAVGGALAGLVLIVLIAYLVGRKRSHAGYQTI", "test": "cell-based or functional assay"}, "[4]": {"target": "T3, human LAMP1 at the cell surface", "test": "flow cytometry, dissociated CR-IGR-034P colon PDX cells", "method": "Advanced human primary colon tumor CR-IGR-034P was obtained from Patient-derived xenograft in mice. Tumor CR-IGR-034P was enzymatically dissociated using collagenase Type IV (Invitrogen; #17104-019) and deoxyribonuclease I (Invitrogen; #18047-019) for 1 h at 4° C. Cell viability was estimated by Viacount application using Guava® easyCyte™ 8HT Flow Cytometry System. […] 100 μL/well of goat anti-mouse IgG conjugated with Alexa647 (Invitrogen; # A2135) or goat anti-human IgG conjugated with Alexa488 (Invitrogen; # A11013) was added for 45 min at 4° C. and washed three times with PBS 1% BSA. The antibody binding was evaluated after centrifugation and resuspension of cells by adding 200 μl/well PBS 1% BSA and read using Guava® easyCyte™ 8HT Flow Cytometry System. EC50 values were estimated using BIOST@T-SPEED software."}, "[5]": {"target": "T4, cLAMP1::histag (cynomolgus monkey, UniProt P11279 29-380 (human entry))", "T4 construct": "extracellular domain with C-terminal tag that includes 6 His; also called cynomolgus LAMP1 (27-380); cynomolgus monkey LAMP1 protein", "T4 chain": "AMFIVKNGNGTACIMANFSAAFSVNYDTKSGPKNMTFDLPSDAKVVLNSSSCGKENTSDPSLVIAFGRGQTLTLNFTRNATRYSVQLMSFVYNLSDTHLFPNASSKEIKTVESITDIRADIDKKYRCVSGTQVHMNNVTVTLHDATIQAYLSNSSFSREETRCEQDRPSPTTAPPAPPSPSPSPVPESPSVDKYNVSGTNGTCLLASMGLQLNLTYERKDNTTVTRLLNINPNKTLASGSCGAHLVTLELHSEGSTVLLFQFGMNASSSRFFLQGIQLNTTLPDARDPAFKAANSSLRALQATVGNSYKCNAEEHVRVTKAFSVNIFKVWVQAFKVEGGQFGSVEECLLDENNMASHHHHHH", "test": "ELISA"}, "[6]": {"target": "T5, LAMP1::histag (human, UniProt P11279 29-382)", "T5 construct": "extracellular domain without signal peptide, C-terminal 6 His tag, made in HEK293 cells; also called recombinant human LAMP1; human LAMP1 (29-382)", "T5 sequence": "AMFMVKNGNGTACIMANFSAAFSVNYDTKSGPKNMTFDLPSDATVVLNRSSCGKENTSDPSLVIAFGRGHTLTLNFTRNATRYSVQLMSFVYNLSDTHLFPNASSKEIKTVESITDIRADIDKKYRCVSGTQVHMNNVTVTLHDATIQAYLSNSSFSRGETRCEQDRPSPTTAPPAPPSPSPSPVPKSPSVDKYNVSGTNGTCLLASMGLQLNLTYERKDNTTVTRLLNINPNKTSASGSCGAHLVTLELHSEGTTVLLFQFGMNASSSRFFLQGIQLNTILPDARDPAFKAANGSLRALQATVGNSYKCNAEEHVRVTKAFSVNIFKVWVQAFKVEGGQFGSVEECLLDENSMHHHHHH", "test": "ELISA"}, "[7]": {"target": "T6, recombinant human LAMP2 with a C-terminal 10 His-tag (human, UniProt P13473 29-375)", "T6 construct": "bought; also called soluble LAMP2 protein (R&D Systems 6228-LM)", "T6 sequence (P13473 other isoform, or with tags, fused parts or gaps)": "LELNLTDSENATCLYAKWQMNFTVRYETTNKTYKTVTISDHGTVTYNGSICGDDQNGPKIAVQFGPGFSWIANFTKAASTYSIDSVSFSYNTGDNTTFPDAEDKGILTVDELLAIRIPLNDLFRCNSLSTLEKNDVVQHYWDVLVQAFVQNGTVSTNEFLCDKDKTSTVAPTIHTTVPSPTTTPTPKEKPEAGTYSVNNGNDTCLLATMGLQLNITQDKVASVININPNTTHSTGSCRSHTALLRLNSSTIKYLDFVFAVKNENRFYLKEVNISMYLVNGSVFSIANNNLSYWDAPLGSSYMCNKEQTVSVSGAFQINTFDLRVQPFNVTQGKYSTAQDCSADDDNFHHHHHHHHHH", "test": "ELISA with soluble LAMP1 or LAMP2"}, "[8]": {"target": "T5, LAMP1::histag", "test": "ELISA on recombinant human LAMP1"}, "[9]": {"target": "T6, recombinant human LAMP2 with a …", "test": "ELISA on coated soluble human LAMP2"}, "[10]": {"target": "T4, cLAMP1::histag", "test": "ELISA on recombinant cynomolgus LAMP1"}}, "data": [{"binder": "chMAb2 (antibody, human IgG1, kappa, chimeric, human IgG1, Ckappa) heavy: not shown light: NIVLTQSPVSLAVSLGQRATISCRASESVDINGNTFMHWYQQKPGQSPKLVIYAASNIESGVPARFSGSGSSTDFTFTIDPVEADDVATYYCQQNIEDPWTFGGGTKVEIKRTVAAPSVFIFPPSDEQLKSGTASVVCLLNNFYPREAKVQWKVDNALQSGNSQESVTEQDSKDSTYSLSSTLTLSKADYEKHKVYACEVTHQGLSSPVTKSFNRGEC", "values": [{"measurement": "binding result", "setting": "[1]", "result": "no binding"}, {"measurement": "binding result", "setting": "[2]", "result": "no binding"}, {"measurement": "ADCC EC50, NK batch 6712562616", "setting": "[3]", "result": 2, "unit": "nM"}, {"measurement": "ADCC EC50, NK batch 67125626389", "setting": "[3]", "result": 0.1, "unit": "nM"}, {"measurement": "ADCC EC50, NK batch 67125903091", "setting": "[3]", "result": 0.5, "unit": "nM"}]}, {"binder": "MAb4 (antibody, mouse IgG1, V domains shown, also called antibody from hybridoma 88LAMP1-2) VH: QVQLQQSGAELVRPGTSVKVSCKASGYAFTNYLIEWVKQRPGQGLEWIGVINPGSGGTNYNEKFKGKATLTADKSSSTAYMQLSSLTSDDSAVYFCARYRSYDWYFDVWGAGTTVTVSS VL: DIQMTQSPASLSASVGETVTITCRVSGNIHNYLAWYQQKQGKSPQLLVYNAKTLADGVPSRFSGSGSGTQYSLKINSLQPEDFGSYYCQHFWSNPYTFGGGTKLEIK", "values": [{"measurement": "EC50", "setting": "[4]", "result": 1.3, "unit": "nM"}, {"measurement": "EC50", "setting": "[5]", "result": "0.2 to 0.4", "unit": "nM"}, {"measurement": "EC50", "setting": "[6]", "result": "0.2 to 0.4", "unit": "nM"}, {"measurement": "fold difference of EC50 (LAMP1 versus LAMP2)", "setting": "[7]", "result": "> 100", "unit": "fold"}, {"measurement": "EC50", "setting": "[8]", "result": 0.39, "unit": "nM"}, {"measurement": "binding result", "setting": "[9]", "result": "no binding (tested: 10 µg/mL)"}, {"measurement": "EC50", "setting": "[10]", "result": 0.22, "unit": "nM"}]}]}
